The subject of the data set is Bs-CspB-100V80 fusion (ssRNA purification reagent, Isotag) (Bacillus subtilis). The note with it: percent of spiked dsRNA eluted; greater than 4-log dsRNA removal; dsRNA ELISA.

Substance “dsRNA matching the sequence and size of the eGFP ssRNA” displayed a binding of under 4%.
